Data set [1] deals with T1, NONO(53-312) (UniProt Q15233 53-312).
T1 sequence: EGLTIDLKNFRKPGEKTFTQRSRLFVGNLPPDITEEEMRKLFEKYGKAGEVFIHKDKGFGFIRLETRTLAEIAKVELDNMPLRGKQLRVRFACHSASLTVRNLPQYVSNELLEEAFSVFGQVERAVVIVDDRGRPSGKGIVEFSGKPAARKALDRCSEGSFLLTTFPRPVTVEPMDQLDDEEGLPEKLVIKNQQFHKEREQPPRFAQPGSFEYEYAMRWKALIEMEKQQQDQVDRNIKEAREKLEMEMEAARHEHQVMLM
Briefly: competition; vs labelled NEAT1_22619 G4, 1-200x excess; NONO(53-312) EMSA: 20 mM HEPES pH 7.5, 5.7 mM Tris-HCl, 113 mM KCl, 10% glycerol, 62 mM L-proline, 1% EMPIGEN BB, 0.12 mM EDTA, 4 C 1 h, 10 nM RNA; full-length: 20 mM HEPES pH 7.4, 11 mM Tris, 105 mM KCl, 14% glycerol, 40 mM glycine, 0.2 mM EDTA, 0.5 mM DTT, 0.5% BSA, 25 C; pulldown: 10 mM HEPES pH 7.0, 200 mM KCl, 1% Triton X-100, 1 mM MgCl2, 1 mM DTT, 4 C, …. The settings on record: protein: recombinant; tags: His tag removed by TEV; chain copies: 2; label: none; intramolecular G4. (Mobility shift assays separate free from complexed probe on a gel.)

The target in data set [2] is T1, NONO(53-312). Briefly: EMSA; annealed with 100 mM KCl; NONO(53-312) EMSA: 20 mM HEPES pH 7.5, 5.7 mM Tris-HCl, 113 mM KCl, 10% glycerol, 62 mM L-proline, 1% EMPIGEN BB, 0.12 mM EDTA, 4 C 1 h, 10 nM RNA; full-length: 20 mM HEPES pH 7.4, 11 mM Tris, 105 mM KCl, 14% glycerol, 40 mM glycine, 0.2 mM EDTA, 0.5 mM DTT, 0.5% BSA, 25 C; pulldown: 10 mM HEPES pH 7.0, 200 mM KCl, 1% Triton X-100, 1 mM MgCl2, 1 mM DTT, 4 C, washes to 1.6 M KCl. The settings on record: protein: recombinant; tags: His tag removed by TEV; chain copies: 2; label: 3' Cy5; intramolecular G4, annealed with 100 mM KCl.

In data set [3] the target is T2, NONO full-length (UniProt Q15233 1-471).
T2 sequence: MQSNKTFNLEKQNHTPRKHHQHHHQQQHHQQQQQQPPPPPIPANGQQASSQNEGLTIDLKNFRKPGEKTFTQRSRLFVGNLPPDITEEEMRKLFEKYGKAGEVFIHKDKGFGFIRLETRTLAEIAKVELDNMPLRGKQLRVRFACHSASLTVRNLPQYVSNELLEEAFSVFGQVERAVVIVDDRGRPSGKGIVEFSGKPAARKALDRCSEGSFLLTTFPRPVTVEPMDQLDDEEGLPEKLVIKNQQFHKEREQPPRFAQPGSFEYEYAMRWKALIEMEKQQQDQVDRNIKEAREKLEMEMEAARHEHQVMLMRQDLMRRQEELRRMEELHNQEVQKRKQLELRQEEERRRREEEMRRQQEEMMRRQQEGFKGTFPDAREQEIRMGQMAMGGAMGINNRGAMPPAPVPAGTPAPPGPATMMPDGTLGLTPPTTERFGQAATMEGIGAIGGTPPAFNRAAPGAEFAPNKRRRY
Briefly: EMSA; annealed with 100 mM KCl; complex retained in wells; NONO(53-312) EMSA: 20 mM HEPES pH 7.5, 5.7 mM Tris-HCl, 113 mM KCl, 10% glycerol, 62 mM L-proline, 1% EMPIGEN BB, 0.12 mM EDTA, 4 C 1 h, 10 nM RNA; full-length: 20 mM HEPES pH 7.4, 11 mM Tris, 105 mM KCl, 14% glycerol, 40 mM glycine, 0.2 mM EDTA, 0.5 mM DTT, 0.5% BSA, 25 C; pulldown: 10 mM HEPES pH 7.0, 200 mM KCl, 1% Triton X-100, 1 mM MgCl2, 1 mM DTT, 4 C, …. The settings on record: protein: commercial; tags: MYC/DDK; chain copies: 2; label: 3' Cy5; intramolecular G4, annealed with 100 mM KCl.

The target of data set [4] is T1, NONO(53-312). Briefly: competition; vs labelled NEAT1_22619 G4, 1-200x excess; no significant competition; NONO(53-312) EMSA: 20 mM HEPES pH 7.5, 5.7 mM Tris-HCl, 113 mM KCl, 10% glycerol, 62 mM L-proline, 1% EMPIGEN BB, 0.12 mM EDTA, 4 C 1 h, 10 nM RNA; full-length: 20 mM HEPES pH 7.4, 11 mM Tris, 105 mM KCl, 14% glycerol, 40 mM glycine, 0.2 mM EDTA, 0.5 mM DTT, 0.5% BSA, 25 C; pulldown: 10 mM HEPES pH 7.0, 200 mM KCl, 1% Triton X-100, 1 …. The settings on record: protein: recombinant; tags: His tag removed by TEV; chain copies: 2; label: none; annealed with 100 mM KCl.

B1: (GGGGCC)4 G-quadruplex competitor (structured_RNA)
RNA: GGGGCCGGGGCCGGGGCCGGGGCC
Take B1: the binding result in data set [1] is recorded as “binds”.

B2: NEAT1_22619 G-quadruplex (structured_RNA)
RNA: GGGAGGGAGGGAGGG
For the molecule B2, the binding result in data set [2] and in data set [3] was “binds” in each case.

B3: NEAT1_22619 G-quadruplex competitor (structured_RNA)
RNA: GGGAGGGAGGGAGGG
B3: the binding result in data set [1] is given as “binds”.

B4: 5'-Splice Site RNA (ssRNA)
RNA: AAAAAGGUAAG
On to B4, for which the binding result in data set [4] was “no binding”.

B5: (GGGGCC)4 G-quadruplex (structured_RNA)
RNA: GGGGCCGGGGCCGGGGCCGGGGCC
As to B5, the binding result in data set [2] is “binds”.

These data come from article PMC7367201, “G-quadruplexes offer a conserved structural motif for NONO recruitment to NEAT1 architectural lncRNA”.
